We go through 35 sequences from the domain aggregation screens of Martell et al. (2025).

The data set is described as follows: soluble fraction after stress (log2 fold change); higher = more stays soluble; pooled small domains, quantitative proteomics. The settings on record: stress: 75 degC.
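Note: 20 min heating vs room temperature control held 20 min.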

Take “HMHFEWNELRKAINDFLAEQNMNEDKQLGPYFIQRDIVVPETGTEIDSKKFSEVFKHKVIMYLFDDAAKQ”: the “soluble fraction (log2)” value came out at 0.0433.
The value for “HMHGESISVPDLRGQKMERMPAFLADKHLQFKVIDSLFDLEKNPGTVLEQDPAPNSKVKEGRTIYLTVNAQ” was -0.00257; that for “HMHGQGTYTSPDGTKYVGDWQDEKMHGQGTYTYPDGMKFVGEFKDNKPWNGTGYDKYGNVKATFSNGVGKS” was -0.0508.
Take “HMHGSSSTVPPVKGLSFEQARLTLAENDLTVEISDSIYDRNARPGTVVESWPRAGSVVKQGRQVYVTVTAF”: the “soluble fraction (log2)” value is -0.894.
For the sequence “HMHHDDHNQQEEIKEKLLAMVADGERHHVTEVRQLDEDWDMVTKVMKELMDEEQLLMDGSYLILSA”, the “soluble fraction (log2)” value came out at 0.116.
To “HMHHSGLRQSQFDEISRQIRSLLEMESLSLQELKTRMEDVPEEQLTKVVSYLLSEEIIRQENGRLQ” belongs 0.254.
For the sequence “HMHKAVVGPPNARKLAVTYGFKRWPALVFFRDGKYLGAVDGLRLWADLVREADEIMHSEPHYP”, the “soluble fraction (log2)” value came to 0.0613.
Consider “HMHKFMEQNQDRRLSRMKELIGILSEAAKTYYQESREIMSNFQYDRMYDELLELEKETGVVMAGSPTQKV”, for which the “soluble fraction (log2)” value is -0.276.
Consider “HMHKKQEVQDSIDAAEEFMRASGVPAELITSKRAYAVKAIYADAVDKGTPDEIVKKDGMIVALISQMRS”, for which the “soluble fraction (log2)” value turned out to be 0.421.
The value for “HMHKLTIEEALNYKTPANAGGPYSGKPFRDIYDQRGKAAVISFAKYYLSKATPEDPMVEVYRTLLDGAMEL” was -1.61.
To “HMHKREKSFFETIYDDIPGIGKKRRVQLLSAYPTLDSLKSVTLEELKQIVPEESAKLILEKRDSR” belongs 0.0151; to “HMHPARITATVRVGEGDLVDIEREAELGGPIHSKGVMILSSFLGARYARTVPLSLSASLVFEQSY”, 0.0581.
To “HMHPDALTEREREVLSLLADGLSNREIAARLVLALGTVKWYISVIYSKLGVTRRTQAIARARELHLV” belongs -0.0116; to “HMHPEETVNLILDAAFRLFLEKGYEHTSIQDIIGQLGGLSKGAIYHHFNSKEDILIAVTDRMTA”, -2.12.
With “HMHPEQTLEKIVDISAELFAKKGYEQTSIQDILDATGLSKGGLYHHFKSKEEILEAVMQKRVQY”, the “soluble fraction (log2)” value is -0.154.
Regarding “HMHPFELNTVTEGQLKRLPFLSDLQIRELLEYRSRYGKMLTLYELKNVEAFDLETISLLVPFIYISEI”, the “soluble fraction (log2)” value was -1.36.
Consider “HMHPKTPDELLALMSEEQRGQIEQLAKLVLMAVSYSGASYYDAVTTMYPRMSEERRRIITHVLNTASP”, for which the “soluble fraction (log2)” value was -0.908.
Regarding “HMHPLFRVVLAGEPNGVGLDDWLTRHEAELINGPSAIGVLTVKIAMGRRSFETVLDEIRADGETIFVEPV”, the “soluble fraction (log2)” value was -3.49.
The value for “HMHPTDMKLTARLEEGAQFVRTQQLSKAIEIFTEVIKLDQNWAEAWNKRATVFYMMGKFKQSQEDIDKVLA” was 0.0611; that for “HMHPTEKNLTSLLADGSFYMNQNKLETAYDTFTKTIELDPSWAEAWNKRATVLYLMGKYELSQADIDQV” was 0.0869.
Turning to “HMHPVTGRIGTVTAANGLNLRADSSEYANVVATLGYGVDVTVTGERINGFYPVRVGTLSGYVSADYVSFNS”, the “soluble fraction (log2)” value is -1.23.
As for “HMHQVHKIDGVKYYLHLVEKGNTLYGISKQYNVSVERIEKANTEALSDGLKENQTLLIPVTSDNKKT”, the “soluble fraction (log2)” value was -0.537.
For “HMHREITGSLAERNGRYTAILNLYDEDGKRRQKSIALGIPVKGNKRKAQAQLEELKRAYSLGLPQ”, the “soluble fraction (log2)” value is -0.346.
The value for “HMHRGTPASIIAAAKQYLTGGQTVELYEREGGPWTFRLRTYLSETPYPEKVRASVEALKPAGVVFLYELQS” was -0.019; that for “HMHRIKRRNDTLVSALDSIAGIGAKRKKALLQHFGSVRAIKAVSAEEIAKVEGISPTLANQIFEAL” was -1.07.
Consider “HMHRTMFYLDVDLAEGQSVKMAVHEDDDPGELAARFADEHQLKSRAMEKLRSVIEENVRLHRRNQ”, for which the “soluble fraction (log2)” value is -0.57.
Consider “HMHRTRNAERTRAAVLKAAAEVLAERGTGASLARIAEVAGVSKSGLLHHFANREQLIVALLED”, for which the “soluble fraction (log2)” value is -1.16.
Turning to “HMHSIFPVIRSTSFPTKSNDGELFITSDHTAETRIYYALDLGNTYRLIDQKVMNEINLTESLVKETARF”, the “soluble fraction (log2)” value is -1.72.
To “HMHSILDDIEGIGPARRKALMRHYMNLDAIKSATVEELAAVPSMNEKSAKAVHNFFHQQKKD” belongs 0.0285; to “HMHSKQRDAIFENLRSRKDHPTAEEIYLSLKPAMPAISLATVYRNLAQLENEGLILRLGSGGSARYDGDT”, -0.467.
Turning to “HMHSLGDQVFETIKELIVNNTYQPGELLQIDKLAAEFGVSTTPVREALLRLEGLGLVDIERNKAAVVT”, the “soluble fraction (log2)” value came out at 0.447.
For “HMHSPLLDRYLAEVGWRLRHLSGAQREDILAGLREHIADLESAGVAPEEIVARLGSPESVADAAAGEF”, the “soluble fraction (log2)” value was -0.0802.
To “HMHSPTFYVHVVGQVKVPGVYELEVGSRLFDAVIAAGGFKDDADQASVNLARPLSDGEQIVVLKLGDQ” belongs -0.777; to “HMHTADDFKQLAKQTSNGQLRTRYLALYLFKNGETRTQIATYLGVARGSVNTWVSNYLAHGLEGLQSKP”, -2.95.
The value for “HMHTSEDLEKLLTRYFQSHESINRQQFEQLSGFTRTTASRRLKALVEAGKLKNIGLHHFPVYKPTEGNF” was -0.485.
